Assay results as given in article PMC9907810 (2023).

Biological target: SARS-CoV-2 receptor-binding domain (RBD), prototype (Wuhan-Hu-1), Avi-tagged and biotinylated (SARS-CoV-2)
Assay: BLI

B1: Ab08 single-chain fragment variable (scFv) (scFv, V domains shown)
VH: QVQLVQSGAEVKKPGSSVKVSCKASGGTFSSYTISWVRQAPGQGLEWMGGIIPILGTTNYAQKFQGRVTITADESTSTAYMELSSLRSEDTAVYYCARKFGYSGYGATWYFDLWGRGTLVTVSS
VL: QSVLTQPPSVSGAPGQRVTISCTGNSSNIGAGYDVHWYQQFPGTAPKLLIYGNSNRPSGVPDRFSGSKSGTSASLAITGLQAEDEADYYCQSYDSSLSGSVFGGGTKLTVL
- koff: 7.5e-05 s⁻¹
